Laboratory results as given in publication doi:10.1101/463968, “Structure of a bacterial ATP synthase” (bioRxiv, 2018).

B1: Bacillus PS3 ATP synthase subunit c (natural protein, UniProt P00845 1-72, looked up)
chain: MSLGVLAAAIAVGLGALGAGIGNGLIVSRTIEGIARQPELRPVLQTTMFIGVALVEALPIIGVVFSFIYLGR
notes: ATP synthase subunit c, Bacillus PS3; ring of ten copies; also called c-ring; c10; source: E. coli strain DK8, plasmid pTR-ASDS; purified as part of the whole ATP synthase (GDN, HisTrap HP, Superose 6); copies: 10
B2: Bacillus PS3 ATP synthase subunit ε (natural protein, UniProt P07678 1-132, looked up)
chain: MKTIHVSVVTPDGPVYEDDVEMVSVKAKSGELGILPGHIPLVAPLEISAARLKKGGKTQYIAVSGGFLEVRPDNVTILAQAAERAEDIDVLRAKARKSGRTPLQSQQDDIDFKRAELALKRAMNRLSVAEMK
notes: ATP synthase subunit epsilon, Bacillus PS3; source: E. coli strain DK8, plasmid pTR-ASDS; purified as part of the whole ATP synthase (GDN, HisTrap HP, Superose 6)

Columns and labels:
Test in all cases: cryo-EM structure; intact Bacillus PS3 ATP synthase in GDN, three rotational states at 2.9, 2.9 and 3.1 Å; focused refinement of the membrane-embedded region at 3.3 Å
[1] = target: the molecule itself
[2] = target: T1, Bacillus PS3 ATP synthase subunit α (Bacillus PS3, UniProt P09219 1-502); details: both partners purified
T1 construct: ATP synthase subunit alpha, Bacillus PS3; three copies in the complex (α3β3γδε ab2c10); Part of the intact complex α3β3γδε ab2c10; also called αDP; source: E. coli strain DK8, plasmid pTR-ASDS; purified as part of the whole ATP synthase (GDN, HisTrap HP, Superose 6)

[3] = target: T2, Bacillus PS3 ATP synthase subunit γ (Bacillus PS3, UniProt P09222 5-286); details: both partners purified
T2 construct: ATP synthase subunit gamma, Bacillus PS3; source: E. coli strain DK8, plasmid pTR-ASDS; purified as part of the whole ATP synthase (GDN, HisTrap HP, Superose 6)
T2 sequence (P09222 5-286): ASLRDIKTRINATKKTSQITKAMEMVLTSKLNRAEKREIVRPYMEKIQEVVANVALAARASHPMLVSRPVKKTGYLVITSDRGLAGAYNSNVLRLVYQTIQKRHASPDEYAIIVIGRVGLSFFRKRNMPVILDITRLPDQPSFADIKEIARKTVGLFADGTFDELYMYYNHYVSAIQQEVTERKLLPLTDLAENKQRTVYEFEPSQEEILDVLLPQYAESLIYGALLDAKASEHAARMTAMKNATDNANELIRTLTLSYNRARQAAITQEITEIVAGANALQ

T1 sequence (P09219 whole entry): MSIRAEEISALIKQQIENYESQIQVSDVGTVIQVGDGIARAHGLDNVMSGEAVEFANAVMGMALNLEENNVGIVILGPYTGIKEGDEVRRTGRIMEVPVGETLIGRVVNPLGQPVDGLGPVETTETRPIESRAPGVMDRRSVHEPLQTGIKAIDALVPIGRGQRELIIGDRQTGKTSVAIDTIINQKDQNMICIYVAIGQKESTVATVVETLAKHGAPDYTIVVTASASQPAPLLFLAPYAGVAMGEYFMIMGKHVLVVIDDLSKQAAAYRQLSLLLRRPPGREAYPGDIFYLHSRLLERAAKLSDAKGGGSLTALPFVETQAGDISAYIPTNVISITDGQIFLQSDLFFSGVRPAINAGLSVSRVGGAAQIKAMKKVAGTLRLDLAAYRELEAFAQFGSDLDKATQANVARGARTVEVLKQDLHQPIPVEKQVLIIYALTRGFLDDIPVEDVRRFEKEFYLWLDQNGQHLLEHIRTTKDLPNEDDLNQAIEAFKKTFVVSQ

Row | Binder | stoichiometry N [1] | binding result [2] | binding result [3]
1 | B1 | 10 | – | –
2 | B2 | – | binds | binds
